Measurements taken from PMC2137827.
Values joined by “and” are separate entries in the source; they are usually repeats but may differ in a detail not shown here. Identical values can stand only once. Like-named read-outs stand apart in the source and are kept apart here.

Experiments:
[1] = target: IQGAP1 (native, from bovine adrenal) (bovine (endogenous in adrenal)); experiment: co-purification with quantitative immunoblot
[2] = target: IQGAP1 (native, from bovine adrenal) (bovine (endogenous in adrenal)); experiment: co-purification with quantitative immunoblot; remark: listed apart in the source
[3] = target: IQGAP1 (native, from bovine adrenal) (bovine (endogenous in adrenal)); experiment: AUC
[4] = target: F-actin assembled from purified rabbit skeletal muscle actin (rabbit) (UniProt P68135); experiment: co-sedimentation

stoichiometry N (mol calmodulin per mol 190K) [1]	stoichiometry N (mol calmodulin per mol 190K) [2]	stoichiometry N (subunits per molecule) [3]	percent of IQGAP1 able to bind F-actin (other experiments) [4] [%]	Substance
0.05	0.067 and 0.042 and 0.026	–	–	Calmodulin co-purifying with native IQGAP1 from bovine adrenal (from UniProt P62157 1-149) (natural protein)
–	–	2	85	IQGAP1 (native, from bovine adrenal) (natural protein)
